Data reported in the supplement of paper PMC5998384.

System: HeLa Kyoto
Assay: thermal stability score vs G1/S (z-score of summed log2 fold changes over temperatures); higher = more thermally stable than in G1/S
[1] = cell cycle stage: early G1 (4.5 h after nocodazole release)
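Further: synchronized HeLa Kyoto cells, proteins quantified by TMT10plex mass spectrometry, three biological replicates, mitosis taken 0.5 h after nocodazole release, G1/S directly after double thymidine block.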

Row | Sequence | thermal stability score [1] | thermal stability score (cell cycle stage: mitosis)
1 | MAAGLRKRGRSGSAAQAEGLCKQWLQRAWQERRLLLREPRYTLLVAACLCLAEVGITFWVIHRVAYTEIDWKAYMAEVEGVINGTYDYTQLQGDTGPLVYPAGFVYIFMGLYYATSRGTDIRMAQNIFAVLYLATLLLVFLIYHQTCKVPPFVFFFMCCASYRVHSIFVLRLFNDPVAMVLLFLSINLLLAQRWGWGCCFFSLAVSVKMNVLLFAPGLLFLLLTQFGFRGALPKLGICAGLQVVLGLPFLLENPSGYLSRSFDLGRQFLFHWTVNWRFLPEALFLHRAFHLALLTAHLTLLLLFALCRWHRTGESILSLLRDPSKRKVPPQPLTPNQIVSTLFTSNFIGICFSRSLHYQFYVWYFHTLPYLLWAMPARWLTHLLRLLVLGLIELSWNTYPSTSCSSAALHICHAVILLQLWLGPQPFPKSTQHSKKAH [ALG3] | 1.41 | 2.38
2 | MAALEKMTFPKKMTFPEKPSHKKYRAALKKEKRKKRRQELARLRDSGLSQEEEEDTFIEEQQLEEEKLLERERERLHEEWLLREQKAQEEFRIKKEKEEAAKKWLEEQERKLKEQWKEQQRKEREEEEQKQQEKKEKEEAVQKMLDQAENDLENSTTWQNPEPPVDFRVMEKDRANCPFYSKTGACRFGDRCSRKHNFPTSSPTLLIKSMFTTFGMEQCRRDDYDPDASLEYSEEETYQQFLDFYEDVLPEFKNVGKVIQFKVSCNLEPHLRGNVYVQYQSEEECQAALSLFNGRWYAGRQLQCEFCPVTRWKMAICGLFEIQQCPRGKHCNFLHVFRNPNNEFWEANRDIYLSSDQTGSSFGKNSERREKMGHHDHYYSRQRGRRNPSPDHTYKRNGESERKKSSHRGKKSHKRTSKSRERHNSPSRGRNRHRSWDQGRRSQSRRSHRSRSQSSSRCRSRGRRKSGNRDRTVQSPQSK [ZRSR1] | 1.06e-17 | 1.37e-17
3 | MAEQVLPQALYLSNMRKAVKIRERTPEDIFKPTNGIIHHFKTMHRYTLEMFRTCQFCPQFREIIHKALIDRNIQATLESQKKLNWCREVRKLVALKTNGDGNCLMHATSQYMWGVQDTDLVLRKALFSTLKETDTRNFKFRWQLESLKSQEFVETGLCYDTRNWNDEWDNLIKMASTDTPMARSGLQYNSLEEIHIFVLCNILRRPIIVISDKMLRSLESGSNFAPLKVGGIYLPLHWPAQECYRYPIVLGYDSHHFVPLVTLKDSGPEIRAVPLVNRDRGRFEDLKVHFLTDPENEMKEKLLKEYLMVIEIPVQGWDHGTTHLINAAKLDEANLPKEINLVDDYFELVQHEYKKWQENSEQGRREGHAQNPMEPSVPQLSLMDVKCETPNCPFFMSVNTQPLCHECSERRQKNQNKLPKLNSKPGPEGLPGMALGASRGEAYEPLAWNPEESTGGPHSAPPTAPSPFLFSETTAMKCRSPGCPFTLNVQHNGFCERCHNARQLHASHAPDHTRHLDPGKCQACLQDVTRTFNGICSTCFKRTTAEASSSLSTSLPPSCHQRSKSDPSRLVRSPSPHSCHRAGNDAPAGCLSQAARTPGDRTGTSKCRKAGCVYFGTPENKGFCTLCFIEYRENKHFAAASGKVSPTASRFQNTIPCLGRECGTLGSTMFEGYCQKCFIEAQNQRFHEAKRTEEQLRSSQRRDVPRTTQSTSRPKCARASCKNILACRSEELCMECQHPNQRMGPGAHRGEPAPEDPPKQRCRAPACDHFGNAKCNGYCNECFQFKQMYG [TNFAIP3] | 0.262 | -0.606
4 | MAGLKRRVPLHSLRYFISMVGLFSKPGLLPWYARNPPGWSQLFLGTVCKGDFTRVIATKCQKGQKSQKKPSHLGPLDGSWQERLADVVTPLWRLSYEEQLKVKFAAQKKILQRLESYIQMLNGVSVTTAVPKSERLSCLLHPIIPSPVINGYRNKSTFSVNRGPDGNPKTVGFYLGTWRDGNVVCVQSNHLKNIPEKHSQVAQYYEVFLRQSPLEPCLVFHEGGYWRELTVRTNSQGHTMAIITFHPQKLSQEELHVQKEIVKEFFIRGPGAACGLTSLYFQESTMTRCSHQQSPYQLLFGEPYIFEELLSLKIRISPDAFFQINTAGAEMLYRTVGELTGVNSDTILLDICCGTGVIGLSLAQHTSRVLGIELLEQAVEDARWTAAFNGITNSEFHTGQAEKILPGLLKSKEDGQSIVAVVNPARAGLHYKVIQAIRNFRAIHTLVFVSCKLHGESTRNVIELCCPPDPAKKLLGEPFVLQQAVPVDLFPHTPHCELVLLFTR [TRMT2B] | 0.356 | 1.27
5 | MAPLRPLLILALLAWVALADQESCKGRCTEGFNVDKKCQCDELCSYYQSCCTDYTAECKPQVTRGDVFTMPEDEYTVYDDGEEKNNATVHEQVGGPSLTSDLQAQSKGNPEQTPVLKPEEEAPAPEVGASKPEGIDSRPETLHPGRPQPPAEEELCSGKPFDAFTDLKNGSLFAFRGQYCYELDEKAVRPGYPKLIRDVWGIEGPIDAAFTRINCQGKTYLFKGSQYWRFEDGVLDPDYPRNISDGFDGIPDNVDAALALPAHSYSGRERVYFFKGKQYWEYQFQHQPSQEECEGSSLSAVFEHFAMMQRDSWEDIFELLFWGRTSAGTRQPQFISRDWHGVPGQVDAAMAGRIYISGMAPRPSLAKKQRFRHRNRKGYRSQRGHSRGRNQNSRRPSRATWLSLFSSEESNLGANNYDDYRMDWLVPATCEPIQSVFFFSGDKYYRVNLRTRRVDTVDPPYPRSIAQYWLGCPAPGHL [VTN] | 2.31 | -1.24
6 | MASAVFEGTSLVNMFVRGCWVNGIRRLIVSRRGDEEEFFEIRTEWSDRSVLYLHRSLADLGRLWQRLRDAFPEDRSELAQGPLRQGLVAIKEAHDIETRLNEVEKLLKTIISMPCKYSRSEVVLTFFERSPLDQVLKNDNVHKIQPSFQSPVKISEIMRSNGFCLANTETIVIDHSIPNGRDQQLGVDPTEHLFENGSEFPSELEDGDDPAAYVTNLSYYHLVPFETDIWD [PXDC1] | -0.022 | 0.549
7 | MDPETRGQEIIKVTPLQQMLASCTGAILTSVIVTPLDVVKIRLQAQNNPLPKGKCFVYSNGLMDHLCVCEEGGNKLWYKKPGNFQGTLDAFFKIIRNEGIKSLWSGLPPTLVMAVPATVIYFTCYDQLSALLRSKLGENETCIPIVAGIVARFGAVTVISPLELIRTKMQSKKFSYVELHRFVSKKVSEDGWISLWRGWAPTVLRDVPFSAMYWYNYEILKKWLCEKSGLYEPTFMINFTSGALSGSFAAVATLPFDVVKTQKQTQLWTYESHKISMPLHMSTWIIMKNIVAKNGFSGLFSGLIPRLIKIAPACAIMISTYEFGKAFFQKQNVRRQQY [SLC25A40] | -1.32 | -2.29
8 | MEPGEVKDRILENISLSVKKLQSYFAACEDEIPAIRNHDKVLQRLCEHLDHALLYGLQDLSSGYWVLVVHFTRREAIKQIEVLQHVATNLGRSRAWLYLALNENSLESYLRLFQENLGLLHKYYVKNALVCSHDHLTLFLTLVSGLEFIRFELDLDAPYLDLAPYMPDYYKPQYLLDFEDRLPSSVHGSDSLSLNSFNSVTSTNLEWDDSAIAPSSEDYDFGDVFPAVPSVPSTDWEDGDLTDTVSGPRSTASDLTSSKASTRSPTQRQNPFNEEPAETVSSSDTTPVHTTSQEKEEAQALDPPDACTELEVIRVTKKKKIGKKKKSRSDEEASPLHPACSQKKCAKQGDGDSRNGSPSLGRDSPDTMLASPQEEGEGPSSTTESSERSEPGLLIPEMKDTSMERLGQPLSKVIDQLNGQLDPSTWCSRAEPPDQSFRTGSPGDAPERPPLCDFSEGLSAPMDFYRFTVESPSTVTSGGGHHDPAGLGQPLHVPSSPEAAGQEEEGGGGEGQTPRPLEDTTREAQELEAQLSLVREGPVSEPEPGTQEVLCQLKRDQPSPCLSSAEDSGVDEGQGSPSEMVHSSEFRVDNNHLLLLMIHVFRENEEQLFKMIRMSTGHMEGNLQLLYVLLTDCYVYLLRKGATEKPYLVEEAVSYNELDYVSVGLDQQTVKLVCTNRRKQFLLDTADVALAEFFLASLKSAMIKGCREPPYPSILTDATMEKLALAKFVAQESKCEASAVTVRFYGLVHWEDPTDESLGPTPCHCSPPEGTITKEGMLHYKAGTSYLGKEHWKTCFVVLSNGILYQYPDRTDVIPLLSVNMGGEQCGGCRRANTTDRPHAFQVILSDRPCLELSAESEAEMAEWMQHLCQAVSKGVIPQGVAPSPCIPCCLVLTDDRLFTCHEDCQTSFFRSLGTAKLGDISAVSTEPGKEYCVLEFSQDSQQLLPPWVIYLSCTSELDRLLSALNSGWKTIYQVDLPHTAIQEASNKKKFEDALSLIHSAWQRSDSLCRGRASRDPWC [PLEKHM2] | -1.92 | -1.58
9 | MGSNSSRIGDLPKNEYLKKLSGTESISENDPFWNQLLSFSFPAPTSSSELKLLEEATISVCRSLVENNPRTGNLGALIKVFLSRTKELKLSAECQNHIFIWQTHNALFIICCLLKVFICQMSEEELQLHFTYEEKSPGNYSSDSEDLLEELLCCLMQLITDIPLLDITYEISVEAISTMVVFLSCQLFHKEVLRQSISHKYLMRGPCLPYTSKLVKTLLYNFIRQEKPPPPGAHVFPQQSDGGGLLYGLASGVATGLWTVFTLGGVGSKAAASPELSSPLANQSLLLLLVLANLTDASDAPNPYRQAIMSFKNTQDSSPFPSSIPHAFQINFNSLYTALCEQQTSDQATLLLYTLLHQNSNIRTYMLARTDMENLVLPILEILYHVEERNSHHVYMALIILLILTEDDGFNRSIHEVILKNITWYSERVLTEISLGSLLILVVIRTIQYNMTRTRDKYLHTNCLAALANMSAQFRSLHQYAAQRIISLFSLLSKKHNKVLEQATQSLRGSLSSNDVPLPDYAQDLNVIEEVIRMMLEIINSCLTNSLHHNPNLVYALLYKRDLFEQFRTHPSFQDIMQNIDLVISFFSSRLLQAGAELSVERVLEIIKQGVVALPKDRLKKFPELKFKYVEEEQPEEFFIPYVWSLVYNSAVGLYWNPQDIQLFTMDSD [DYM] | 0.139 | 0.823
10 | MHTLVFLSTRQVLQCQPAACQALPLLPRELFPLLFKVAFMDKKTVVLRELVHTWPFPLLSFQQLLQECAHCSRALLQERPSTESMQAVILGLTARLHTSEPGASTQPLCRKHALRVLDMTGLLDDGVEQDPGTMSMWDCTAAVARTCIAQQQGGAAEPGPAPIPVEVRVDLRVNRASYAFLREALRSSVGSPLRLCCRDLRAEDLPMRNTVALLQLLDAGCLRRVDLRFNNLGLRGLSVIIPHVARFQHLASLRLHYVHGDSRQPSVDGEDNFRYFLAQMGRFTCLRELSMGSSLLSGRLDQLLSTLQSPLESLELAFCALLPEDLRFLARSPHAAHLKKLDLSGNDLSGSQLAPFQGLLQASAATLLHLELTECQLADTQLLATLPILTQCASLRYLGLYGNPLSMAGLKELLRDSVAQAELRTVVHPFPVDCYEGLPWPPPASVLLEASINEEKFARVEAELHQLLLASGRAHVLWTTDIYGRLAADYFSL [LRRC14] | -0.753 | -0.00668
11 | MIEVVAELSRGPVFLAGEALECVVTVTNPLPPTATSASSEALAWASAQIHCQFHASESRVALPPPDSSQPDVQPDSQTVFLPHRGERGQCILSTPPKILFCDLRLDPGESKSYSYSEVLPIEGPPSFRGQSVKYVYKLTIGCQRVNSPITLLRVPLRVLVLTGLQDVRFPQDEAVAPSSPFLEEDEGGKKDSWLAELAGERLMAATSCRSLHLYNISDGRGKVGTFGIFKSVYRLGEDVVGTLNLGEGTVACLQFSVSLQTEERVQPEYQRRRGAGGVPSVSHVTHARHQESCLHTTRTSFSLPIPLSSTPGFCTAIVSLKWRLHFEFVTSREPGLVLLPPVEQPEPTTWTGPEQVPVDTFSWDLPIKVLPTSPTLASYAAPGPSTSTITI [RGP1] | 0.0205 | -1.18
